Experiments:
Test in all cases: SPR (BIACORE), antibody captured, FcgR analyte
[1] = target: T1, human FcγRIIaR extracellular domain with C-terminal His-tag (human, UniProt P12318 34-217)
T1 construct: also called human FcgRIIaR; FcγRIIa (type R)
T1 chain: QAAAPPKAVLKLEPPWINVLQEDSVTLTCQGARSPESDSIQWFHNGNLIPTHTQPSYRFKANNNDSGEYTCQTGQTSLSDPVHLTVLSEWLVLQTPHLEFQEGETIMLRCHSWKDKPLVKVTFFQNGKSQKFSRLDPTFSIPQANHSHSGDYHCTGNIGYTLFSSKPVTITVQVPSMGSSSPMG
Method: (§1) The kinetic analysis of interactions between these antibodies and FcγR was carried out using BIACORE® T200 or BIACORE® 4000 (GE Healthcare). HBS-EP+ (GE Healthcare) was used as the running buffer, and the measurement temperature was set to 25° C. A chip produced by immobilizing Protein A. Protein A/G or mouse anti-human IgG kappa light chain (BD Biosciences) onto a Series S Sensor Chip CM4 or CM5 (GE Healthcare) by the amine-coupling method was used. […] After the measurement, the antibody captured on the chip was washed off by allowing reaction with 10 mM glycine-HCl, pH1.5 and 25 mM NaOH so that the chip was regenerated and used repeatedly. The sensorgrams obtained as measurement results were analyzed by the 1:1 Langmuir binding model using the BIACORE® Evaluation Software to calculate the binding rate constant ka (L/mol/s) and dissociation rate constant kd (l/s), and the dissociation constant KD (mol/L) was calculated from these values. […] Regarding such interactions, KD values were calculated using the following 1:1 binding model described in BIACORE® T100 Software Handbook BR1006-48 Edition AE.
(§2) The behavior of interacting molecules according to the 1:1 binding model on BIACORE® can be described by Equation 1: Req=C·R max/(KD+C)+RI, wherein, Req is a plot of steady-state binding levels to analyte concentration. C is concentration, RI is bulk refractive index contribution in the sample, and Rmax is analyte binding capacity of the surface. When this equation is rearranged, KD can be expressed as Equation 2: KD=C·Rmax/(Req−RI)−C. KD can be calculated by substituting the values of Rmax, RI, and C into Equation 1 or Equation 2. From the current measurement conditions, RI=0, C=2 μmol/L can be used.

[2] = target: T2, human FcγRIIb extracellular domain with C-terminal His-tag (human, UniProt P31994 43-217)
T2 construct: also called human FcgRIIb
T2 sequence: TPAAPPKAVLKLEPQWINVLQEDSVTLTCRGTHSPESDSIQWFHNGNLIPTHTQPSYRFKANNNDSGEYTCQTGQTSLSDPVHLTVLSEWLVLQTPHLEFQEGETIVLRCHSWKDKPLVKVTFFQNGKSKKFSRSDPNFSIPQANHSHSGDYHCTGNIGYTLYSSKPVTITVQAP
Method: as §1, §2

[3] = target: T3, cynomolgus monkey FcγRIIa2 extracellular domain with C-terminal His-tag (cynomolgus monkey)
T3 construct: also called cyno FcgRIIa2; cynoFcγRIIa2
T3 chain: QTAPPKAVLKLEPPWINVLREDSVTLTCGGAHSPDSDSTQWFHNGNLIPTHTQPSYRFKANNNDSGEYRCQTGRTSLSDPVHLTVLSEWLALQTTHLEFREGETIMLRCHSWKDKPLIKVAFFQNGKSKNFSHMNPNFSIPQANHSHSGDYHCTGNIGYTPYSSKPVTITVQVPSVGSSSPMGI
Method: as §1, §2

[4] = target: T4, cynomolgus monkey FcγRIIb extracellular domain with C-terminal His-tag (cynomolgus monkey)
T4 construct: also called cyno FcgRIIb; cynoFcγRIIb
T4 chain: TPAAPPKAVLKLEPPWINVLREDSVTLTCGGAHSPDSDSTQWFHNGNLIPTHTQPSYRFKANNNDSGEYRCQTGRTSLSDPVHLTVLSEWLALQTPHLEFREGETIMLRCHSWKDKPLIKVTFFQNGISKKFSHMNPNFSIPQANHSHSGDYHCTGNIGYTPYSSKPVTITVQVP
Method: as §1, §2

[5] = target: T5, cynomolgus monkey FcγRIIIaS extracellular domain with C-terminal His-tag (cynomolgus monkey, UniProt Q8SPW2 21-206 at identity 1.00))
T5 construct: also called cyno FcgRIIIaS; cynoFcγRIIIaS
T5 chain: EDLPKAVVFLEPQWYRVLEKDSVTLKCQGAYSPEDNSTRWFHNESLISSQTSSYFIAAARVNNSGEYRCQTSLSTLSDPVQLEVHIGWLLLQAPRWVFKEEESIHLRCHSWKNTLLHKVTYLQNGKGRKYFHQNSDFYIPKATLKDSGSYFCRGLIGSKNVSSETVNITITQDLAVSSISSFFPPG
Method: as §1, §2

[6] = target: T6, cynomolgus monkey FcγRIIa1 extracellular domain with C-terminal His-tag (cynomolgus monkey)
T6 construct: also called cyno FcgRIIa1; cynoFcγRIIa1
T6 chain: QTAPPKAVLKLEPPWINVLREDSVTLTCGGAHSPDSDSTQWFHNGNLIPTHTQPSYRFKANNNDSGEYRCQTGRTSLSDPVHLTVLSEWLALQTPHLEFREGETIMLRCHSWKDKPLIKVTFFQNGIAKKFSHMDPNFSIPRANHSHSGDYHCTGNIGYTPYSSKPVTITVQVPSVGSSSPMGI
Method: as §1, §2

[7] = target: T7, human FcγRIIaH extracellular domain with C-terminal His-tag (human, UniProt P12318 34-217)
T7 construct: also called human FcgRIIaH; FcγRIIa (type H)
T7 sequence: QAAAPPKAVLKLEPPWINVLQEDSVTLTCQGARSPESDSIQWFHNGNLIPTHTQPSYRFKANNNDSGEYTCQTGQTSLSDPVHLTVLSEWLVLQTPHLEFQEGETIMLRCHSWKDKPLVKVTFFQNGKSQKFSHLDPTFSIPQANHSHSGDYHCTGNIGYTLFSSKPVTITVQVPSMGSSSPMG
Method: as §1, §2

[8] = target: T8, cynomolgus monkey FcγRIIa3 extracellular domain with C-terminal His-tag (cynomolgus monkey)
T8 construct: also called cyno FcgRIIa3; cynoFcγRIIa3
T8 chain: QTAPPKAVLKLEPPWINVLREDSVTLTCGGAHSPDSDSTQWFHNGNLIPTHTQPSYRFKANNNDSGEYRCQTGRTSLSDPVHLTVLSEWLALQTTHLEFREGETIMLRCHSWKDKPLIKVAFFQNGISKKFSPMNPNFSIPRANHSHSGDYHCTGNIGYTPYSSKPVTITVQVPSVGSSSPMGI
Method: as §1, §2

Kd [1]: 1100 nM
Kd [2]: 4600 nM
Kd [3]: 5100 nM
Kd [4]: 1800 nM
Kd [5]: 360 nM
Kd [6]: 3200 nM
Kd [7]: 690 nM
Kd [8]: 17000 nM
B1: MS_M103205H795-SG1/M103202L889-SK1 (antibody, human IgG1, kappa)
heavy: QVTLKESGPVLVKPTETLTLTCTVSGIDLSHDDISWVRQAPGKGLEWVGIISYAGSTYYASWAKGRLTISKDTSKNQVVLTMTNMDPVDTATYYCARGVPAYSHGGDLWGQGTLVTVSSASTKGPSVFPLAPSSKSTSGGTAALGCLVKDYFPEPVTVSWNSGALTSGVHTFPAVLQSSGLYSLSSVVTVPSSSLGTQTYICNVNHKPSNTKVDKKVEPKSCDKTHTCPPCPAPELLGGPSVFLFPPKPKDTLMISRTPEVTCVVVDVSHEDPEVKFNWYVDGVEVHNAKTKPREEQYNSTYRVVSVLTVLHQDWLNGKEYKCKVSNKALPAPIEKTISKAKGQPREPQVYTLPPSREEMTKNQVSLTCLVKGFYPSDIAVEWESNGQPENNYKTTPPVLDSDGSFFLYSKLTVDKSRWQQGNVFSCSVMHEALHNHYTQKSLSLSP
light: DIVMTQSPATLSLSPGERATLSCTSSQSVYHANWLSWFQQKPGQPPKLLIYWASTLAYGVPSRFSGSGSGTDFTLTISSLQPEDAATYYCAGGYGGGRYAFGQGTKVEIKRTVAAPSVFIFPPSDEQLKSGTASVVCLLNNFYPREAKVQWKVDNALQSGNSQESVTEQDSKDSTYSLSSTLTLSKADYEKHKVYACEVTHQGLSSPVTKSFNRGEC
notes: Parent antibody of the Fc variants; also called MS1032LO06-SG1
